In publication PMC9586977, “Structure of the pre-mRNA leakage 39-kDa protein reveals a single domain of integrated zf-C3HC and Rsm1 modules” (Scientific Reports, 2022):

B1: ScPml39_(77–317), truncated Saccharomyces cerevisiae pre-mRNA leakage 39-kDa protein (residues 77–317) (domain or fragment, UniProt Q03760 77-317, looked up)
chain: GFRLHDLRALLKRICSIQNYTRHVLIEWDVRWVNPLTLASKGWEPYQSASQSQVPFKCCCCHAIMTIPLLKNGDDVADYTMKLNEKIWNSNIIGNHLQKCPWRENQVDLNKEYYLSSQNLIREIERIHTEIDRIVSGSNEFSLKRNSSRIFHYLSEKEIQKLAFFFDCKDYSLVGLLLLGYTKFQKDDLVQCTACFHRASLKKLEYTEFNGHALWCRYYNKELLPTMLLELIGKEDKLITK
notes: Pml39 (pre-mRNA leakage 39-kDa protein), Saccharomyces cerevisiae, UniProtKB Q03760, residues 77-317 of 334; holds the zf-C3HC (79-189) and Rsm1 (190-311) modules; Cloned into NcoI/NotI of pET28a; hexahistidine tag removed with PreScission protease; also called truncated ScPml39; source: E. coli BL21(DE3)-RIL CodonPlus, purified (Ni-NTA, HiTrap SP, Superdex 200)
B2: ScMlp1_(1–325), N-terminal fragment of Saccharomyces cerevisiae Myosin-like protein 1 (residues 1–325), homodimer (domain or fragment, UniProt Q02455 1-325, looked up)
chain: MSDHDTPMESIQNGENSDERLNAIASFFGCSLEQVKSFDGDVVKHLNDKLLQFNELKSENLKVTVSFDELKASSLKKIDGLKTEMENVIRENDKIRKERNDTFVKFESVENEKMKLSSELEFVKRKLDDLTEEKKETQSNQQRTLKILDERLKEIELVRVENNRSNSECKKLRSTIMDLETKQQGYITNDLNSRTELERKTQELTLLQSNNDWLEKELRSKNEQYLSYRQKTDKVILDIRNELNRLRNDFQMERTNNDVLKQKNNELSKSLQEKLLEIKGLSDSLNSEKQEFSAEMSLKQRLVDLLESQLNAVKEELNSIRELNT
notes: Cloned into NcoI/NotI of pET28a; hexahistidine tag removed with PreScission protease; Homodimer by SEC-MALS (~80 kDa; expected monomer 41 kDa); also called ΔC-ScMlp1; source: E. coli BL21(DE3)-RIL CodonPlus, purified (Ni-NTA, HiTrap Q, Superdex 200)

Columns and labels:
[1] = target: B2; assay: ITC; 1.6 mM ScPml39(77-317) injected (2 µl every 180 s) into 350 µl of 70 µM ScMlp1(1-325) in the chamber; 4 °C; 500 mM NaCl, 20 mM HEPES pH 7.5, 0.5 mM TCEP; three independent measurements; details: both partners purified
[2] = target: the molecule itself; assay: SEC-MALS; 100 µl of 70 µM ScMlp1(1-325) on Superdex 200 10/300 GL, 0.5 mL/min, 25 °C; 500 mM NaCl, 20 mM HEPES-NaOH pH 7.5, 0.5 mM TCEP

Binder | Kd [1] | stoichiometry N [1] | stoichiometry N [2]
B1 | ~13 µM | 1 | 
B2 |  |  | 2
